Reference: patent US20130177979A1 (UNIVERSITY OF CENTRAL FLORIDA RESEARCH FOUNDATION, published 2013)
Where no end group is shown, it is not given here. [ ]: non-standard residue; d: D form. pY = N[C@@H](Cc1ccc(OP(=O)(O)O)cc1)C(=O)O

T1: GpYIKTE (Stat1 pY701 peptide)
T1 construct: SPR analyte; also called pY701Stat1; Stat1 phosphopeptide
T1 peptide: G[pY]IKTE

T2: PpYLKTK (Stat3-derived pTyr705 peptide)
T2 construct: SPR analyte; also called pY705Stat3; Stat3 pY705 peptide
T2 peptide: P[pY]LKTK

T3: PEpYINQS (pY1068 peptide of EGFR)
T3 construct: SPR analyte; also called pY1068EGFR
T3 peptide: PE[pY]INQS

T4: GpYVKPQ (pTyr peptide of Stat5)
T4 construct: SPR analyte; also called pY694Stat5; pY695Stat5
T4 peptide: G[pY]VKPQ


How the values were obtained:
[1] = target: T1, GpYIKTE (Stat1 pY701 peptide); assay: SPR (SensiQ), His-tagged protein immobilised on HisCap chip, pTyr peptide as analyte
[2] = target: T2, PpYLKTK (Stat3-derived pTyr705 peptide); assay: as above
[3] = target: T3, PEpYINQS (pY1068 peptide of EGFR); assay: as above
[4] = target: T4, GpYVKPQ (pTyr peptide of Stat5); assay: as above
[5] = target: T4, GpYVKPQ (pTyr peptide of Stat5); assay: SPR (SensiQ); His-tagged full-length Stat3 immobilised on a HisCap sensor chip, GpYVKPQ passed over as analyte; sensorgram shown at 100 µM
[6] = target: T5, human epidermal growth factor receptor (EGFR) on cells (human, UniProt P00533 25-1210); assay: Fluorescence and confocal microscopy, fluorescently-labeled SPI and anti-EGFR immunostaining in MDA-MB-231 and NIH3T3/hEGFR cells
T5 construct: whole, on cells; SPI is said to associate with the pTyr motifs of the receptor's cytoplasmic tail inside cells; also called hEGFR; EGF receptor
Description: Fluorescence imaging and immunofluorescence with laser-scanning confocal microscopy.

| Kd [1] [µM] | Kd [2] [µM] | Kd [3] [µM] | Kd [4] [µM] | Kd [5] [µM] | binding result [6] | Binder |
| --- | --- | --- | --- | --- | --- | --- |
| 4.4 | 0.9 | 0.6 | 1200 | 1140 |  | His-tagged Stat3 (full-length Stat3) (other) MAQWNQLQQLDTRYLKQLHQLYSDTFPMELRQFLAPWIESQDWAYAASKESHATLVFHNLLGEIDQQYSRFLQESNVLYQHNLRRIKQFLQSRYLEKPMEIARIVARCLWEESRLLQTAATAAQQGGQANHPTAAVVTEKQQMLEQHLQDVRKRVQDLEQKMKVVENLQDDFDFNYKTLKSQGDMQDLNGNNQSVTRQKMQQLEQMLTALDQMRRSIVSELAGLLSAMEYVQKTLTDEELADWKRRQQIACIGGPPNICLDRLENWITSLAESQLQTRQQIKKLEELQQKVSYKGDPIVQHRPMLEERIVELFRNLMKSAFVVERQPCMPMHPDRPLVIKTGVQFTTKVRLLVKFPELNYQLKIKVCIDKDSGDVAALRGSRKFNILGTNTKVMNMEESNNGSLSAEFKHLTLREQRCGNGGRANCDASLIVTEELHLITFETEVYHQGLKIDLETHSLPVVVISNICQMPNAWASILWYNMLTNNPKNVNFFTKPPIGTWDQVAEVLSWQFSSTTKRGLSIEQLTTLAEKLLGPGVNYSGCQITWAKFCKENMAGKGFSFWVWLDNIIDLVKKYILALWNEGYIMGFISKERERAILSTKPPGTFLLRFSESSKEGGVTFTWVEKDISGKTQIQSVEPYTKQQLNNMSFAEIIMGYKIMDATNILVSPLVYLYPDIPKEEAFGKYCRPESQEHPEADPGSAAPYLKTKFICVTPTTCSNTIDLPMSPRTLDSLMQFGNNGEGAEPSAGGQFESLTFDMDLTSECATSPM |
|  |  |  |  |  | binds | FISKERERAILSTKPPGTFLLRFSESSK (5-carboxyfluorescein attached to the amino-terminus, Used for cell uptake and colocalisation microscopy; also called fluorescently-labeled SPI) [5-carboxyfluorescein-labeled SPI] |
